Blank lines part the entries; values can stand above or below the binder they belong to.
What was measured:
TCAB1 = target: T1, TCAB1 (human (endogenous in HEK293T), UniProt Q9BUR4 1-548); experiment: cryo-EM structure; telomerase-DNA-TPT complex assembled in HEK293T cells and purified as a whole, BS3 cross-linked; H/ACA RNP lobe by signal subtraction; 2.7 Å (semi-closed thumb loop) and 3.1 Å (open thumb loop) reconstructions; conditions: both partners purified
T1 construct: TCAB1, human, Cajal body localization factor of the telomerase H/ACA RNP; also called Cajal body localization factor; source: HEK293T cells transfected with TERT and hTR

[1] = target: the molecule itself; experiment: as above

T1 sequence (Q9BUR4 whole entry): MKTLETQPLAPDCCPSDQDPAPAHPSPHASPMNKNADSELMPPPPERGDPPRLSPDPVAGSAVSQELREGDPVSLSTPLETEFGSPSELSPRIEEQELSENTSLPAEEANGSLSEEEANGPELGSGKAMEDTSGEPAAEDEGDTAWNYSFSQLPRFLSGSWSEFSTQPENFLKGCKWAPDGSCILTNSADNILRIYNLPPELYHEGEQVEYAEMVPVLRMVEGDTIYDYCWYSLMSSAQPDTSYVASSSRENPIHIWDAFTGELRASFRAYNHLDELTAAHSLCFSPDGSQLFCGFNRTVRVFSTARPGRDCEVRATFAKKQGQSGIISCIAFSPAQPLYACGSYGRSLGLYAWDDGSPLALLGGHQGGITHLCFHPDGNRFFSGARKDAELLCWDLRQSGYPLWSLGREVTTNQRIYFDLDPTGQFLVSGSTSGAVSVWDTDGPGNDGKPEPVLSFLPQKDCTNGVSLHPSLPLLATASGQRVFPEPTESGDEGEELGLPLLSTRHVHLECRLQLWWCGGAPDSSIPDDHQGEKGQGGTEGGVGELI

binding result (TCAB1): binds
B1: NHP2 (natural protein, human (endogenous in HEK293T), UniProt Q9NX24 1-153, looked up)
chain: MTKIKADPDGPEAQAEACSGERTYQELLVNQNPIAQPLASRRLTRKLYKCIKKAVKQKQIRRGVKEVQKFVNKGEKGIMVLAGDTLPIEVYCHLPVMCEDRNLPYVYIPSKTDLGAAAGSKRPTCVIMVKPHEEYQEAYDECLEEVQSLPLPL
notes: NHP2, human, core H/ACA protein; two copies (5’ and 3’) stand in the telomerase H/ACA RNP; also called 3’ NHP2; source: HEK293T cells transfected with TERT and hTR

B2: dyskerin (natural protein, human (endogenous in HEK293T), UniProt O60832 1-514, looked up)
chain: MADAEVIILPKKHKKKKERKSLPEEDVAEIQHAEEFLIKPESKVAKLDTSQWPLLLKNFDKLNVRTTHYTPLACGSNPLKREIGDYIRTGFINLDKPSNPSSHEVVAWIRRILRVEKTGHSGTLDPKVTGCLIVCIERATRLVKSQQSAGKEYVGIVRLHNAIEGGTQLSRALETLTGALFQRPPLIAAVKRQLRVRTIYESKMIEYDPERRLGIFWVSCEAGTYIRTLCVHLGLLLGVGGQMQELRRVRSGVMSEKDHMVTMHDVLDAQWLYDNHKDESYLRRVVYPLEKLLTSHKRLVMKDSAVNAICYGAKIMLPGVLRYEDGIEVNQEIVVITTKGEAICMAIALMTTAVISTCDHGIVAKIKRVIMERDTYPRKWGLGPKASQKKLMIKQGLLDKHGKPTDSTPATWKQEYVDYSESAKKEVVAEVVKAPQVVAEAAKTAKRKRESESESDETPPAAPQLIKKEKKKSKKDKKAKAGLESGAEPGDGDSDTTKKKKKKKKAKEVELVSE
notes: dyskerin, human, catalytic pseudouridine synthase subunit of H/ACA RNPs; domains NTE, PUA, TruB, CTE; two copies (5’ and 3’) stand in the telomerase H/ACA RNP; residues 1-22 (5’ copy) and 1-42 (3’ copy) are not visible in the map; also called 5’ dyskerin; 3’ dyskerin; source: endogenous, HEK293T cells transfected with TERT and hTR
binding result [1]: binds

Reference: PMC10811338, “2.7 Å cryo-EM structure of human telomerase H/ACA ribonucleoprotein” (Nature Communications, 2024)
